Assay results from PMC4749557 (2015).

T1: recombinant Mtgr1 NHR1 domain (residues 98–206) (mouse, UniProt O70374 98-206, H200K, biotin (biotin-acceptor tag))
T1 sequence: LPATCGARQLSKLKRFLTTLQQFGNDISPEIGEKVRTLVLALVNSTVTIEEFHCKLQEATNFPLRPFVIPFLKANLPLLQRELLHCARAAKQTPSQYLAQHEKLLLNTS

B1: human PRDM14 (residues 238–487) (domain or fragment)
chain: LPQTLDKDSLQLPEGLCLMQTVFGEVPHFGVFCSSFIAKGVRFGPFQGKVVNASEVKTYGDNSVMWEIFEDGHLSHFIDGKGGTGNWMSYVNCARFPKEQNLVAVQCQGHIFYESCKEIHQNQELLVWYGDCYEKFLDIPVSLQVTEPGKQPSGPSEESAEGYRCERCGKVFTYKYYRDKHLKYTPCVDKGDRKFPCSLCKRSFEKRDRLRIHILHVHEKHRPHKCSTCGKCFSQSSSLNKHMRVHSGDR
modifications: biotin (biotin-acceptor tag)

Assays:
[1] = biological target: B1
[2] = biological target: Mb(hPRDM14_S14), purified monobody (biotin)
[3] = biological target: T1, recombinant Mtgr1 NHR1 domain (residues …); assay: Mtgr1 immobilized on beads
[4] = biological target: T1, recombinant Mtgr1 NHR1 domain (residues …); assay: Prdm14 immobilized on beads

Row | Kd [1] [nM] | Kd [2] [nM] | Kd [3] [nM] | Kd [4] [nM] | Binder
1 | 38 |  |  |  | Mb(hPRDM14_S4), purified monobody (designed binder, biotin) GSVSSVPTKLEVVAATPTSLLISWDAPAVTVDLYFITYGETGGNSPVQKFTVPGSKSTATISGLKPGVDYTITVYAQYYYRGWYVGSPISINYRT
2 |  | 2.8 |  |  | B1
3 |  | 1.7 | 11 | 7.1 | recombinant Prdm14 pre-SET+SET domains (residues 184–373) (domain or fragment, biotin (biotin-acceptor tag)) GFNFTEEELSFVLYGAIASPEHPTDLQHAISGILVPTESSGSNHLHKTLDKDSLQLPEGLCLMQTSFGDVPHFGVFCSDFIAKGVRFGPFRGRVVNASEVKAHRDNSRMWEIFEDGHLSHFIDGKGSGNWMSYVNCARFPKEQNLLAVQHQGQIFYESCRDIQRNQELLVWYGNGYEKFLGVPMNLRVTE
